Data: patent US20220289830A1
Numbering of substitutions follows the chain as printed.

B1: 2D3 (antibody, V domains shown)
VH: EVQLLESGGGLVQPGGSLRLSCTASGFTFSDNHMSWVRQAPGKGLDWVSGISESGGSTYYADSVKGRFSTSRDNSKSTLYLDMNSLRAEDTAIYYCAKGRFSYDTRHFFRAVYGMDVWGQGTAVTVSS
VL: DIQLTQSPSSLSASVGDRVTITCRASQGISSYLAWYQQKPGKAPKLLIYAASTLQSGVPSRFSGSGSGTDFTLTISSLQPEDFATYYCQQLSSYPLSFGGGTKVEIK
B2: 9B12 (antibody, V domains shown)
VH: B1 VH with H33P, G50V, Y59N, Y60D, Y103T, D104N, T105S, R106D, F109Y
VL: B1 VL with S97T
B3: 7B1-1F5 (antibody, V domains shown)
VH: B1 VH with H33Y, G50V, Y59N, Y103T, D104L, T105S, R106S
VL: B1 VL with L11F, V15T, L46V, D70E, S92K, S97T, V104L

Molecular target: native PcrV on live Pseudomonas aeruginosa (strains O6-57/66, O11-PA103, O1-52/66, O16-177/81) (Pseudomonas aeruginosa)
Assay: cell-based or functional assay

Binder	RBC lysis assay IC50 (P. aeruginosa strain 57/66(O6)) [µg/mL]
B1	0.05
B2	0.07
B3	0.19
